Target: HLA-B08:01 (human)
Assay: peptide-MHC-I complex dissociation half-life, 125I-b2m, 37 C
Procedure: Briefly, synthetic genes encoding biotinylated MHC-I heavy and light chains are expressed in E. coli and purified from inclusion bodies using standard methods. The light chain (β2m) is radio-labeled with iodine (¹²⁵I), and combined with the purified MHC-I heavy chain and peptide of interest at 18° C. to initiate pMHC-I complex formation. These reactions are carried out in streptavidin coated microplates to bind th biotinylated MHC-I heavy chains to the surface and allow measurement of radiolabeled light chain to monitor complex formation. Dissociation is initiated by addition of higher concentrations of unlabeled light-chain and incubation at 37° C. Stability is defined as the length of time in hours it takes for half of the complexes to dissociate, as measured by scintillation counts

- Stability (T1/2 (h)): 0 h
Binder: QVYRRKHQEL [QVYRRKHQEL (EML4:ALK)]

From US20190307868A1 (published 2019)
